The values below come from patent US12356911B2, “Group of UDP-glycosyltransferase for catalyzing carbohydrate chain elongation and application thereof” (GSYNBIOT (SHANGHAI) CO., LTD, priority 2017, dated 2025).

Assay type in all cases: biochemical
Data set [1] can be described thus: In vitro transglycosylation at C-3, Rh2 as glycosyl acceptor, UDP-glucose as donor. The settings on record: crude enzyme (E. coli lysate supernatant); TLC, FIG. 13, FIG. 15. An excerpt: (§1) Cell lysate of recombinant E. coli with empty vector pET28a was used as a control.
Data set [2] in a line: In vitro transglycosylation at C-20, CK as glycosyl acceptor, UDP-glucose as donor. To be noted: crude enzyme (E. coli lysate supernatant); TLC/HPLC, FIG. 2, 3, 12, 16.
From the text: as §1
As shown in FIG. 16: Protopanaxadiol Ginsenoside CK is used as a glycosyl acceptor, and UDP-glucose is used as a glycosyl donor.

Data set [3] can be described thus: In vitro transglycosylation at C-20, Rd as glycosyl acceptor, UDP-glucose as donor. To be noted: crude enzyme (E. coli lysate supernatant); TLC/HPLC, FIG. 2, 3, 11.
From the text: as §1

B1: GT29-45: Ginseng UDP-glycosyltransferase, 448 amino acids, SEQ ID NO.: 98 (protein)
chain: MDIEKGRISIVMLPFLAHGHISPFFELAKHLSKRNCNIFLCSTPINLSSIKNRVSDKDSSASIKLVELHLPSSPDLPPHYHTTNGLPSHLMVPLRNAFETAAPTFSEILKTLNPDLLIYDFNPSWAPEIASSHNIPAVYFLTSAAATSSMGLHAFKNSGEKYPFPDFYDNSNITPEPPSADKMKLFHDFVACFKRSCDIILIKSFRELEGKYIDFLSTLSKKTLVPVGPLVQDPMGHDEDPKTGHLINWLDKRAESTVVFVCFGSEYFPSNEELEELAIGLEISMVSFILAVRFPEGEKKGILPEGFVQRVGDRGLVVEGWAPQARILGHSSTGGFVSHCGWSSIMESVKFGVPVIAMARHLDQPLNAKLAAEVGVGMEVMRDENGKYKREAIAEVIRKVVMEKNGEVMRRKARELSEKMKVKGEQEIGRAVEELVQICKKKKQHAQY
modifications: Panax ginseng
For B1, the “product formation from Rh2 and UDP-glucose (Rg3)” value (from here on “product formation … (Rg3)”) in data set [1] was “can all catalyze the extension of a glucosyl at the C-3 glycosyl of Rh2 to generate Rg3”. In addition, in data set [2], the “product formation from CK and UDP-glucose (Gypenoside LXXV)” value (“product formation … (Gypenoside LXXV)” below) was “can catalyze the C-20 glycosyl of CK to extend a glucosyl to produce Gypenoside LXXV”.

B2: PNUGT29-2: Panax notoginseng glycosyltransferase, 442 amino acids, SEQ ID NO: 41 (protein)
chain: MDNQKGRISIALLPFLAHGHISPFFELAKQLAKRNCNVFLCSTPINLSSIKNKDSSASVKLVELHLPSSPDLPPHYHTTNGLPSHLMVPLRNAFETVGPTFSEILKTLNPDLLIYDFNPSWAPEIASSHNIPAVYFLTTAAASSSIGLHAFKNPGEKYPFPDFYDNSNITPEPPSADNMKLLHDFIACFERSCDIILIKSFRELEGKYIDLLSTLSDKTLVPVGPLVQDPMGHNEDPKTEQIINWLDKRAESTVVFVCFGSEYFLSNEELEEVAIGLEISMVNFIWAVRLIEGEKKGVLPEGFVQRVGDRGLVVEGWAPQARILGHSSTGGFVSHCGWSSIAESMRFGVPVIAMARHLDQPLNAKLAAEVGVGMEVVRDDNGKYKREGIAEVIRKVVVEKSGEVIRRKARELSEKMKEKGEQEIDRAVEELVQICKKKKDAQ
modifications: Panax notoginseng
On to B2, for which the “product formation … (Rg3)” value in data set [1] is recorded as “can catalyze the extension of a glucosyl at the C-3 glycosyl of Rh2 to generate Rg3”. For the same molecule, the “product formation … (Gypenoside LXXV)” value in data set [2] was “can catalyze the extension of a glucosyl at the C-20 glycosyl to generate Gypenoside LXXV”. Besides, the “product formation from Rd and UDP-glucose (Rb1)” value (“product formation … (Rb1)” for short) in data set [3] is “can catalyze the extension of a glucosyl at the C-20 glycosyl of Rd to generate Rb1”.

B3: PNUGT29-14: Panax notoginseng glycosyltransferase, 447 amino acids, SEQ ID NO: 57 (protein)
chain: MYIEKGRISIVMLPFLAHGHISPFFELAKHLSKRNCNIFLCSTPINLSSIKNRVSDKDSSASIKLVELHLPSSPDLPPQYHTTNGLPSHLMVPLKNAFETVGPTFSEILKTLDPDLLIYDFNPSWAPEIALSHNIPAVYFLTSAAATSSVALRALKNPGEKYPFPDFYDNSNITPEPPSADKMKLFHDFVACFKRSCDIILIKSFRELEGKYIDLLSTLSKKTLVPVGPLVQDPLGHDEDPKTGHLINWLDKRAESTVVFVCFGSEYFPSNEELEEVAIGLEISMVNFILAVRFLEGEKKGVLPEGFVQRVGDRGLVVEGWAPQARILGHSSTGGFVSHCGWSSIMESVKFGVPVIAMARHLDQPLNAKLAAEVGVGMEVVRDENGKYKREAIAEVIRKVVMEKNGEVIRRKARELSEKMKETGEQEIGRAVEELVQICKMKKDAQY
modifications: Panax notoginseng
With B3, the “product formation … (Rg3)” value in data set [1] was “can catalyze the extension of a glucosyl at the C-3 glycosyl of Rh2 to generate Rg3”. The “product formation … (Gypenoside LXXV)” value in data set [2] is given as “can catalyze the extension of a glucosyl at the C-20 glycosyl to generate Gypenoside LXXV”. For the same molecule, the “product formation … (Rb1)” value in data set [3] is recorded as “can catalyze the extension of a glucosyl at the C-20 glycosyl of Rd to generate Rb1”.

B4: PNUGT29-3: Panax notoginseng glycosyltransferase, 447 amino acids, SEQ ID NO: 43 (protein)
chain: MDIEKGRISIVMLPFLAHGHISPFFELAKHLSKRNCNIFLCSTPINLSSIKNRVSDKDSSASIKLVELHLPSSPDLPPQYHTTNGLPSHLMVPLKNAFETVGPTFSEILKTLDPDLLIYDFNPSWAPEIALSHNIPAVYFLTSAAATSSVALRALKNPGEKYPFPDFYDNSNITPEPPSADKMKLFHDFVACFKRSCDIILIKSFRELEGKYIDLLSTLSKKTLVPVGPLVQDPLGHDEDPKTGHLINWLDKRAESTVVFVCFGSEYFPSNEELEEVAIGLEISMVNFILAVRFLEGEKKGVLPEGFVQRVGDRGLVVEGWAPQARILGHSSTGGFVSHCGWSSIMESVKFGVPVIAMARHLDQPLNAKLAAEVGVGMEVVRDENGKYKREAIAEVIRKVVMEKNGEVIRRKARELSEKMKETGEQEIGRAVEELVQICKMKKDAQY
In the case of B4, the “product formation … (Rg3)” value in data set [1] was “can catalyze the extension of a glucosyl at the C-3 glycosyl of Rh2 to generate Rg3”. Besides, the “product formation … (Gypenoside LXXV)” value in data set [2] is listed as “can catalyze the extension of a glucosyl at the C-20 glycosyl to generate Gypenoside LXXV”. Moreover, in data set [3], the “product formation … (Rb1)” value is listed as “can catalyze the extension of a glucosyl at the C-20 glycosyl of Rd to generate Rb1”.

B5: PNUGT29-1: Panax notoginseng glycosyltransferase, 447 amino acids, SEQ ID NO: 39 (protein)
chain: MDIEKGRISIVMLPFLAHGHISPFFELAKHLSKRNCNIFLCSTPINLSSIKSRVSDKDSSASIKLVELHLPSSPDLPPQYHTTNGLPSHLMVPLKNAFETVGPTFSEILKTLDPDLLIYDFNPSWAPEIALSHNIPAVYFLTSAAATSSVALRALKNPGEKYPFPDFYDNSNITPEPPSADKMKLFHDFVACFKRSCDIILIKSFRELEGKYIDLLSTLSKKTLVPVGPLVQDPLGHDEDPKTGHLINWLDKRAESTVVFVCFGSEYFPSNEELEEVAIGLEISMVNFILAVRFLEGEKKGVLPEGFVQRVGDRGLVVEGWAPQARILGHSSTGGFVSHCGWSSIMESVKFGVPVIAMARHLDQPLNAKLAAEVGVGMEVVRDENGKYTREAIAEVIRKVVMEKNGEVIRRKARELSDKMKEKGEQEIGRAVEELVQICKMKKDAQY
modifications: Panax notoginseng
On to B5, for which, in data set [1], the “product formation … (Rg3)” value was “can catalyze the extension of a glucosyl at the C-3 glycosyl of Rh2 to generate Rg3”. Further, the “product formation … (Gypenoside LXXV)” value in data set [2] is listed as “can catalyze the extension of a glucosyl at the C-20 glycosyl to generate Gypenoside LXXV”. Further, the “product formation … (Rb1)” value in data set [3] is “can catalyze the extension of a glucosyl at the C-20 glycosyl of Rd to generate Rb1”.

B6: PNUGT29-15: Panax notoginseng glycosyltransferase, 447 amino acids, SEQ ID NO: 59 (protein)
chain: MDIEKGRISIVMLPFLAHGHISPFFELAKHLSKRNCNIFLCSTPINLSSIKNRVSDKDSSASIKLVELHLPSSPDLPPQYHTTNGLPSHLMVPLKNAFETVGPTFSEILKTLDPDLLIYDFNPSWAPEIALSHNIPAVYFLTSAAATSSVALRALKNPGEKYPFPDFYDNSNITPEPPSADKMKLFHDFVACFKRSCDIILIKSFRELEGKYIDLLSTLSKKTLVPVGPLVQDHLGHDEDPKTGHLINWLDKRAESTVVFVCFGSEYFPSNEELEEVAIGLEISMVNFILAVRFLEGEKKGVLPEGFVQRVGDRGLVVEGWAPQARILGHSSTGGFVSHCGWSSIMESVKFGVPVIAMARHLDQPLNAKLAAEVGVGMEVVRDENGKYTREAIAEVIRKVVMEKNGEVIRRKARELSDKMKEKGEQEIGRAVEELVQICKMKKDAQY
modifications: Panax notoginseng
Consider B6, for which the “product formation … (Rg3)” value in data set [1] is “can catalyze the extension of a glucosyl at the C-3 glycosyl of Rh2 to generate Rg3”. Also, in data set [2], the “product formation … (Gypenoside LXXV)” value was “can catalyze the extension of a glucosyl at the C-20 glycosyl to generate Gypenoside LXXV”. For the same molecule, the “product formation … (Rb1)” value in data set [3] is recorded as “can catalyze the extension of a glucosyl at the C-20 glycosyl of Rd to generate Rb1”.

B7: GT29-46: Ginseng UDP-glycosyltransferase, 442 amino acids, SEQ ID NO.: 100 (protein)
chain: MDNQEGRISIALLPFLAHGHISPFFELAKQLAKRNCNVFLCSTPINLSSIKNKDSSASIKLVELHLPSSPDLPPHYHTTNGLPSHLMVPLINAFETAGPTFSEILKTLNPDLLIYDFNPSWAPEIASSHNIPAVYFLTTAAASSSIGLHAFKNPGEKYPFPDFYDNSNNTPEPPSADNMKLLHDFIACFERSCDIILIKSFIELEGKYIDLLSTLSDKTLVPVGPLVQDPMGHNEDPKTEQIINWLDKRAESTVVFVYFGSEYFLSNEELEEVAIGLEISMVNFIWAVRLIEGEKKGVLPEGFVQRVGDRGLVVEGWAPQARILGHSSTGGFVSHCGWSSIAESMKFGVPVIAMARHLDQPLNGKLAAEVGVGMEVVRDENGKYKREGIAEVIRKVVVEKSGEVMRRKARELSEKMKEKGEEEIDRAVEELVQICKKKKDAQ
modifications: primer
For B7, in data set [1], the “product formation … (Rg3)” value is listed as “can all catalyze the extension of a glucosyl at the C-3 glycosyl of Rh2 to generate Rg3”. In addition, the “product formation … (Gypenoside LXXV)” value in data set [2] is “can catalyze the C-20 glycosyl of CK to extend a glucosyl to produce Gypenoside LXXV”.
